The values that follow come from paper PMC7530648 (2020).

The target of this assay is T1, S8-meSRK (S8-SRK ectodomain containing 11 mutations), purified, tags removed (Brassica rapa, three sugar chains (seen in the crystal structure)).
T1 chain: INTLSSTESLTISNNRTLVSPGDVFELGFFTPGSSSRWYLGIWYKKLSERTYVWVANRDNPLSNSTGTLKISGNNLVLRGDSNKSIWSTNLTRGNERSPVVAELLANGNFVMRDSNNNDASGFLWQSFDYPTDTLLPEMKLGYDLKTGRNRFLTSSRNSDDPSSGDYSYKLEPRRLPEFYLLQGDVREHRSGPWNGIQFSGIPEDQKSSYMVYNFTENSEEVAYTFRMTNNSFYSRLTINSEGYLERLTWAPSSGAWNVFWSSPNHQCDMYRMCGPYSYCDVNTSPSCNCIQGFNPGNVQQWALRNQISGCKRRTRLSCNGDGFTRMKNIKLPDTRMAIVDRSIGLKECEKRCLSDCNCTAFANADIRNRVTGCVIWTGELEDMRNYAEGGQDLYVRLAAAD
Put plainly: ITC. In general terms: ITC needs no label: the signal is the heat of the interaction.

No end group written: not given here.

B1: biotin-S8-SP11, chemically synthesized (ligand)
chain: NLMKRCTRGFRKLGKCTTLEEEKCKTLYPRGQCTCSDSKMNTHSCDCKSC
modifications: not fully specified; cysteine pairing not given here; also: biotin-S8 (position not given here)
One may read the Kd as the equilibrium constant for the complex coming apart. Read a low Kd as a tighter complex. Regarding B1, binding was characterised by a dissociation constant (Kd) of 0.0202 µM.
